Results on 15 sequences are retold here after a protein production outcome set (Wang et al. 2014).

A short description of this data set: label from the status in PepcDB records.

Turning to “MEQIITDFISKWGYTAIFILILLENVLPVVPSEIILTFAGLLSVKSHLSIWTLLIIATIASFIGLLILYYICRLISEEKLYRFVDRHGKWMKLKSKDLKRANDWFKKYGAWAVFLCRFVPVLRVLITIPAGINRMNVIQFTTLSLIGTTIWNFALILLGRLLSDSFDALMNGIHTYSRIMYVIIIIAVIYFVIRYLMKRRRSVK”, the protein production entry was “failed”.

Turning to “MEQLQIGDIKVTWLKGGNTHLDGGAMFGVVPKVLWSRKYKHNDTNHIYLRTDPLLLQTKDGNMLIDSGIGNGKLNEKMKRNQGVTEESSVYESLEKLGLKPEDIDYVLMTHLHFDHASGLTKWEDDHLVPSFPNAKVYVSETEWNEMRNPNIRSRNTYWKENWEPIVDQVVTFQQEIEITDEIKMARTGGHSDGHAVIALESQGETMLHLADLLPTHAHQNVLWVMAYDDYPMTSIENKQKWMKYGAEKEAWFTFYHDAYYRAVKWNEEGHIVEKIERKTSIEA”, the protein production result is given as “failed”.

As to “MEQQRSFQTETGGHLYLVPTPIGNLDDMTFRAVKTLTAVDLIAAEDTRNTQKLLNHFEITTKQISFHEHNTQERIPQLIAKLKQGMQIAQVSDAGMPSISDPGHELVNACIDAHIPVVPLPGANAGLTALIASGLAPQPFYFYGFLDRKPKDRKAEIAGLAQRPETLIFYEAPHRLKKTLQNLAAGFGDERPAVLCRELTKRYEEFLRGSLAELANWAATDTVRGEFVVLVGGNPAPTTAATTAVDLSEPIDVQVDRLIAAGEKPNDAIKEVAKLRGAKKQEIYRQYHHLDEE”, the protein production entry is on record as “not failed”.

For “MERAMEQLNRLTRSLRRARTVELPEDNETAVYTLMPMVMADQHRSVSELLSNSKFDVNYAFGRVKRSLLHIAANCGSVECLVLLLKKGANPNYQDISGCTPLHLAARNGQKKCMSKLLEYSADVNICNNEGLTAIHWLAVNGRTELLHDLVQHVTDVDVEDAMGQTALHVACQNGHKTTVQCLLDSGADINRPNVAGATPLYFACSHGQRDTAQILLLRGAKYLPDKNGVTPLDLCVQGGYGQTCEVLIQYHPRLFQTIVQMTQNEDLRENMLRQVLQHLSQQSESQYLKILTGLAEVATTNGHKLLSLSSSYEAQMKSLLRIVRIFCHVFRIGPSSPSNGMDMGYNGNKTPRSQVFKPLELLWHSLDEWLVLIATELMKNKEDSADITSILLKQKGQDQEASCISAFEPPGPGSYERLSTGPGESKPDVLAGKQEASADCQDVISVTANRLSAVIQAFYMCCSCQMPPGMTSPRFIEFVCKHDEVLKCFVNRNPKIIFDHFHFLLECPELMSRFMHIIKAQPFKDRCEWFYEHLHSGQPDSDMVHRPVSENDILLVHRDSIFRSSCEIVSKANCAKLKQGIAVRFHGEEGMGQGVVREWFDILSNEIVNPDYALFTQSYCYVFISIGTTFQPNSNSYVNPDHLNYFRFAGQILGLALNHRQLVNIYFTRSFYKHILGIPVNYQDVASIDPEYAKNLQWILDNDISDLGLELTFSVETDVFGAMEEVPLKPGGGSILVTQNNKAEYVQLVTELRMTRAIQPQINAFLQGFHMFIPPSLIQLFDEYELELLLSGMPEIDVNDWIKNTEYTSGYEREDPVIQWFWEVVEDMTQEERVLLLQFVTGSSRVPHGGFANIMGGSGLQNFTIAAVPYTPNLLPTSSTCINMLKLPEYPSKEILKDRLLVALHCGSYGYTMA”, the protein production result is listed as “failed”.

For “MERDLAGRIVALVSPTGLRTSYSYDACGRMVDVTDPAGRVTRYSYTSDFQVATVTYPTGETARYEYDAMGRVVLSHVPGAGVSQYRYDPCGRLVFSCDLVYGQRHFSYDLAGQLVAATNPAGGVSRYGYDRCGRLVTRTDPGGGLTTYQYNECGQMIAATDPLGRVTEYTWDKSGTLAAITRPDGTVVSRRLGPKGVEEYIDDQLVSRILITPTTRTVTIDDYTDPAFPWRHLLGYDPRGLLLTHSVAPVPGDESIVDEGPLTSSEQWWYDAEGRRVRHLTLTGDSIDYAYTNTGVLGSIRHSRLGEVSLEWDAVGRLAKLGSPLDQQQWGYTDGFVTSHTSSRGSTTISRDEMGRVLRVSAPYGDFRYGYDDSGSLTSADGLDGSSRRWVYDTAGRLVTTTCQDAGTSQTCHYDYDLAGELVSTVTQLGPGDSTVETHYRYDPCGRRIEAASSAGMREEFRWDSRGWLAGVMTFRAGRSHEFATHVDAFGCLTDVSGPAGRTPIAWDLATGEPQLVQVGGIPALPLPDGSVLTPVSADSDQDEPWRRPATDPLDPYTLIQEHLTAGISMTGGHLGVAGLAWMGARVYDSTTASFLTIDPLAAPPGSLWEAASYGYAATNPLALADPLGLRPVTDAQMRQFASTIDTRNLWDRHIRNVFSWETLGGVALATAGGLLMCFGAEVPGAMLIGAGGDMVFQQVVRGHVDYGEVALSGALAPTGGSGLSEIAGLGTRTLLTRGIEAGTTQGYVMGNYHWVTSPGPHNAETYLEQVGGETLSGAAFGGITATIGGKTYDALPDSIPTGHFGPHNTILRVGKQPETFIRKYQRNGKLDFGQATSFRGATFKSKIAIKPITTYRSWSDPDYEVGGYVSRTRPAGPLQTQLDLALAPQWGNKANHISEYEIPQFAPFYEGAAGVQPVKAIEDSDTLGQLPGGGNQILITDKQVLDRWKSKK”, the protein production entry was “failed”.

Turning to “MERDQHIRIIYKLIIVLLVLLIIYVVVQLADLWVPFVYVLKRLLIPLGLAAIITYLFHPLIEAMHRRGMGRGLAVLLVFGAMIALLVCFAVVGAPYVLQQIEELTTSFPTVMKDVEGTVSKMEWQIQQLPHPFHNQAENWLNHLGKKAGNLLGQMERVIVVLIQSMVLLITVPFLVLYFLKDFDLIERAAWYVTPRKWRPSLKRYVRDVDRSFGRYIRGQLLVALSVAVVSMMALWLIGVPYPILLGGFIGATNIIPYFGAFIGAVPALVFAYFESWPVLLATAIALFLLQQLEGNVLSPLIVGHSLHLHPITIILALLVGVEVGGVIGLILAVPILAVLKVTFIHLRLHVSKVDREV”, the protein production result is recorded as “failed”.

Consider “MERFNMKLTRKKFTGNLLRSLAVLLLFSLVVCTAAGEELYFEPQEAVFSDTGSVASLSLYLDQAPSGLAGYKLNLSISDPSVAQITGVEFPSWSGINNSSSLPADLVQIKAVDLEEKINAGDLDVFLGTVTVESLASGEANLTVSVDRLDDDSENTISVTVREAKLTSGTTSENPVVSILPAESTLSSGASQVFEIRADKFTEGISGYDFNLTLENPAVGKFTNVEYPSWVGLSENSSMPNTSIKVKAVDTNDVVKAGDENVLLANVTFVAETPGESEISLTFNRLDDDSGSNINAVAEASSVKVQGSSTLPVAKFTATPTSGDSPLTVQFTDESTGSPTAWTWDFGDGATATEQSPSHTYTSAGNYTVNLTVTNDGGSDSEVKTDYITVSESSTPTEPEPVAAFTADVTNGTVPLTVNFTDQSTEAPTSWAWDFDNDGTVDSTEQNPSYTYTSAGTYTVNLTVANAEGSDSEVKIDYITVSESSTPTEPEPVAAFIADVTNGTVPLTVNFTDQSTGSPTSWLWDFGDNTSATEQNPSHTYNSAGNYTVNLTVISESGNSSEVKADYITVSESSTPTEPEPVAAFTADVTNGTVPLTVNFTDQSTGMPTSWAWDFDNDGNMDSTEQNPSYTYTAEGNYTVNLTVSSEVGSDSEVKVEYITVTDSSTTPEARPDLIVSSIIPPSSITANTSCNIGATISNTGESDAGTFNATLSVNGAVVDTHAVSGIVSGSSATVNFSWKPVAAGYYSVKVSADAGNVIAESDETNNELADCIKVEEASSGSQSQNGSSSVSLNVTIVPVVCFEVSPSALKFGELSAGQTSEPQLLTLKNCGVSGIKVTAEVSDSSAEDNLFGLGLLLDSQIWSDYCNVIGSNSQENATAALHVPSDYTGTGNKKGTITFWAEVAE”, for which the protein production result was “failed”.

For the sequence “MERIALPRRTLGARRREVPVTPDTLLPLLAVLPPLAYGLLALFCARAWFGRQRPGPGHTPPVTILKPVKGMDAESFENFASFCRQEYGGPWQMLFACASADDPVIPVIRRLMAEFPDRDIDLVVDGTIHGPNYKVSNLINAFPRARHDILIVCDSDIRVTSDYLGEVTAPFADPAVGLVTSLYRSPGVRGAATALEAMGFTVEMVPNVMVAQRLEGLSFALGASMAVRRTALESIGGFPALTHYLADDYQLGNKIHRAGWRLELSDCFVESVMHRENLTTVLSRQLRWCRTMRASRPGGYLGSGITQPVPLACLALLVSGCSAAGWGAVILLYLTRALVAVTFSRRYLRDGIFPRWLWLLPLRDILAFATWALSFAGNRVRWRGNLFRLLPGGKIVEIG”, the protein production entry is “failed”.

For “MERIIQQTDYDALSCKLAAISVGYLPSSGLQRLSVDLSKKYTEWHRSYLITLKKFSRRAFGKVDKAMRSSFPVMNYGTYLRTVGIDAAILEFLVANEKVQVVNLGCGSDLRMLPLLQMFPHLAYVDIDYNESVELKNSILRESEILRISLGLSKEDTAKSPFLIDQGRYKLAACDLNDITETTRLLDVCTKREIPTIVISECLLCYMHNNESQLLINTIMSKFSHGLWISYDPIGGSQPNDRFGAIMQSNLKESRNLEMPTLMTYNSKEKYASRWSAAPNVIVNDMWEIFNAQIPESERKRLRSLQFLDELEELKVMQTHYILMKAQW”, the protein production entry is given as “not failed”.

Consider “MERITDVPESPAQSADPARVNDYDSFAEAYSAETENNLVNAYYARPAMLALAGDVAGRRILDAGCGSGPLSAALRDRGAVVTGIDASAGMLALARRRLGDDVALHVVDLSDRLPFDDGAFDDVVASLVLHYLEDWGPTLAELRRVLRPGGRLIASVDHPFVAYTFQDPRPDYFATTSYTFDWTFNGQSVPMKFWRKPLHAMTDAFTTAGFRLSVISEPQPDPAAIELFPDAFHDLSTKTCFLFFVVEVPPSATGSDDY”, for which the protein production entry is reported as “failed”.

For the sequence “MERIVMPANYVHTRTTPFWTKETAPASIWRRHLDAGTRQGVYPRLCVMQGTIRYYGYADETSPEPVETLTIEAGQFGVFPPEKWHRIEALSDDTLFNVDFYVDPKILIEGLEHHHHHH”, the protein production entry is recorded as “failed”.

In the case of “MERNRRRNADNNTVVDQGGVFFDGCDTDEAFGPSSRDVPFQHDSVKSKPNLYGGG”, the protein production result was “not failed”.

For the sequence “MERRLAAILIADVVGYSRLSQIDEEGTRARFQADQNDVFEPAIERHHGRLVKTMGDGLLVEFQSVVDALRCAVEVQQLKATQSAASLPEHRLEFRIGINLGDIIVEGEDIQGDGVNIADRIQALAEPGGIAISGTTYDQVKSKIPVGFASLGEQRLKSITEPIRVYRILLDPTAAGKTLKTRRRLPRRRLVAGIAAAIVVLALAGAALWWQPWMPAKPPGPGERFAYPLPDRPSVAVLPFINVSGDSEHDHLAEGLTDDLITELSKVSGLFVIARHSVFAIQGSVGKIQDVATELGVQYVLEGTLQRAGPRLRINVKLIDAVSGLSLWAERYDRQYADLFAVQDDVIGKIISALSVKLSARERDQLARIPTENLEAYDFYMRAEQEGFILRDVDTYRRTLSFYQKAIDLDPGFANAHAGIARVAVDVWRNDYNYLWSAAVARKIAYDAAGQALKLDPNNARAHTVLALLQWVDGRETEAKNSANMAVAMEPNDAEAAANLALILVHTGSSGQAITEMEKALRLDPSPASSFQLLAGIVFYTAGDDQRAISLIEPTLDSLPKVEPAREYLAAAYADQGNETKAAAETAKLLELFPEGNLTYYGYLYDYWRDGDLQRHLAALRKAGIPEWPFGFTGSQADRLGEADLRNLVDGKSWTGKHKNGTDFTQYFDRAGNTAYRSANTNITGIVEVRGDSLCEKFEGYFLDRMVCGYVYRNTSGEQRDRPYVHVTPRALTFFSPTP”, the protein production entry was “failed”.

As for “MERSIGFGQALKLFWKNYVNFKGRSRRSEYWFMALWNIIFMMPALILYIIGLIMTVSGAASSSEELVAIGVILLFLSICYALIYSLATLIPGWALLIRRFHDTGRTMLMPLIYLGVIVISYPVLFVVNIQDPEYNNPVYIIFFAIIFLVYIALGIYMLVICCLDSERKTNKYGASHKYGNHIKSSTNTYANQDAPIHEDTNVKHVNSEENAFSEEVNTSDENATKKDDNFKY”, the protein production entry is “failed”.

Turning to “MERTLSDSQIRYIKARERRNLRGAQAFICLFLSLFVLILLQGVWLLISPRLACALLVPWAIFLWWWVFHRLKGQQSEVAARTQWLQGQFSATWVSSHRNGHFSYSFGDYPIAACCRLNNLFNEKRLDLHTRYRVEAALLTCSQTASHSYYLFGDTLVPVTRAPETDEQPGS”, the protein production result was “failed”.
